Test results as given in US20240132578A1.

How the values were obtained:
[1] = molecular target: HIV-1 Env of isolate MGRM-F1-023 (pseudovirus) (HIV-1); assay: cell-based or functional assay
[2] = molecular target: HIV-1 envelope glycoprotein (Env) of isolate 92TH021, subtype AE (HIV-1); assay: cell-based or functional assay
[3] = molecular target: WT JR-FL gp120 (HIV-1 JR-FL); assay: ELISA, antigen-coated wells, mAb titrated; EC50 by nonlinear regression
[4] = molecular target: HIV-1 Env of isolate 92UG037 (pseudovirus) (HIV-1); assay: cell-based or functional assay
[5] = molecular target: HIV-1 Env of pseudovirus isolate MGRM-Chronic-B-004 (clade B) (HIV-1); assay: cell-based or functional assay
[6] = molecular target: HIV-1 Env of isolate MGRM-AE-006 (pseudovirus) (HIV-1); assay: cell-based or functional assay
[7] = molecular target: HIV-1 92RW020 Env (HIV-1); assay: cell-based or functional assay
[8] = molecular target: HIV-1 Env of isolate 93UG077 (pseudovirus) (HIV-1); assay: cell-based or functional assay
[9] = molecular target: HIV-1 Env of pseudovirus isolate APV-13 (clade B) (HIV-1); assay: cell-based or functional assay
[10] = molecular target: HIV-1 Env of isolate 92WR024 (pseudovirus) (HIV-1); assay: cell-based or functional assay
[11] = molecular target: HIV-1 Env of isolate 93WR029 (pseudovirus) (HIV-1); assay: cell-based or functional assay
[12] = molecular target: HIV-1 Env of isolate 92UG031 (pseudovirus) (HIV-1); assay: cell-based or functional assay
[13] = molecular target: HIV-1 Env of isolate 94UG103 (pseudovirus) (HIV-1); assay: cell-based or functional assay
[14] = molecular target: HIV-1 Env of isolate MG RM-A-009 (pseudovirus) (HIV-1); assay: cell-based or functional assay
[15] = molecular target: HIV-1 Env of isolate MGRM-AE-004 (pseudovirus) (HIV-1); assay: cell-based or functional assay
[16] = molecular target: HIV-1 Env of isolate MGRM-AE-005 (pseudovirus) (HIV-1); assay: cell-based or functional assay
[17] = molecular target: HIV-1 Env of isolate 92WR021 (pseudovirus) (HIV-1); assay: cell-based or functional assay
[18] = molecular target: HIV-1 Env of isolate 92WR020 (pseudovirus) (HIV-1); assay: cell-based or functional assay
[19] = molecular target: HIV-1 Env of pseudovirus MGRM-G-025 (HIV-1); assay: cell-based or functional assay
[20] = molecular target: HIV-1 Env of isolate SF162 (HIV-1) (UniProt P19550); assay: cell-based or functional assay
[21] = molecular target: HIV-1 Env of pseudovirus MGRM-F1-012 (clade F) (HIV-1); assay: cell-based or functional assay
[22] = molecular target: HIV-1 Env of isolate MGRM-D-019 (clade D pseudovirus) (HIV-1); assay: cell-based or functional assay
[23] = molecular target: HIV-1 Env of isolate TRJ04551.58 (HIV-1); assay: cell-based or functional assay
[24] = molecular target: HIV-1 Env of isolate PVO.4 (HIV-1); assay: cell-based or functional assay
[25] = molecular target: HIV-1 Env of isolate 98IN022 (HIV-1); assay: cell-based or functional assay
[26] = molecular target: HIV-1 Env of isolate 93IN905 (HIV-1); assay: cell-based or functional assay
[27] = molecular target: HIV-1 Env of isolate MGRM-AG-012 (pseudovirus) (HIV-1); assay: cell-based or functional assay
[28] = molecular target: HIV-1 Env of isolate SC422661.8 (HIV-1); assay: cell-based or functional assay
[29] = molecular target: HIV-1 Env of isolate QH0692.42 (HIV-1); assay: cell-based or functional assay
[30] = molecular target: HIV-1 Env of isolate TRO.11 (HIV-1); assay: cell-based or functional assay
[31] = molecular target: HIV-1 Env of isolate VLGCB3 (HIV-1); assay: cell-based or functional assay
[32] = molecular target: HIV-1 Env of isolate THR0.18 (HIV-1); assay: cell-based or functional assay
[33] = molecular target: HIV-1 Env of isolate MGRM-Chronic-B-024 (HIV-1); assay: cell-based or functional assay
[34] = molecular target: HIV-1 Env of isolate 97ZA012 (HIV-1); assay: cell-based or functional assay
[35] = molecular target: HIV-1 Env of isolate NL43 (HIV-1); assay: cell-based or functional assay
[36] = molecular target: HIV-1 Env of isolate MGRM-F1-018 (HIV-1); assay: cell-based or functional assay
[37] = molecular target: HIV-1 Env of isolate 93MW959 (HIV-1); assay: cell-based or functional assay

4995_P16 (PGT-145) (antibody), sequence (VH): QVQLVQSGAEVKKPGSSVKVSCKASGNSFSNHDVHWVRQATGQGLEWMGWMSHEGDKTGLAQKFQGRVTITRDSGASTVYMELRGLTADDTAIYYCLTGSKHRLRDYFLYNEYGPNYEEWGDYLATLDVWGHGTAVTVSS
4995_P16 (PGT-145) (antibody), sequence (VL): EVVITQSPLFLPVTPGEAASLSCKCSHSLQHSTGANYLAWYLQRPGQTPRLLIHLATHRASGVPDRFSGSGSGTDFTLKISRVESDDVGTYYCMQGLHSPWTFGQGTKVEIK
1443_C16 (PG16) (TCN-116) (antibody), sequence (VH): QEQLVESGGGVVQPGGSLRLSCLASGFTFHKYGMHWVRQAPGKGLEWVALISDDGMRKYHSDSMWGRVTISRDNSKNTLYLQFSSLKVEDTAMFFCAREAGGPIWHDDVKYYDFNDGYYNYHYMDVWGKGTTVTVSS
1443_C16 (PG16) (TCN-116) (antibody), sequence (VL): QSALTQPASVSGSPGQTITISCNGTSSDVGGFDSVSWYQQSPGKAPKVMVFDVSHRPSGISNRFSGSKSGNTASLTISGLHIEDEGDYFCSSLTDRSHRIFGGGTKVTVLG
4993_K13 (PGT-141) (antibody), sequence (VH): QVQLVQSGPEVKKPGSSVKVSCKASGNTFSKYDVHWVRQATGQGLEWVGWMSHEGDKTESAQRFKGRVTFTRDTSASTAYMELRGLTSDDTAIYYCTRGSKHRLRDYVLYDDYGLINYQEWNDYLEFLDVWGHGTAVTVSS
4993_K13 (PGT-141) (antibody), sequence (VL): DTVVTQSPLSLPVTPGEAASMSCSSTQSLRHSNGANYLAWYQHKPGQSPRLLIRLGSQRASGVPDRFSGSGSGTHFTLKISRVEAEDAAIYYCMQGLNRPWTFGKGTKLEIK
4995_E20 (PGT-142) (antibody), sequence (VH): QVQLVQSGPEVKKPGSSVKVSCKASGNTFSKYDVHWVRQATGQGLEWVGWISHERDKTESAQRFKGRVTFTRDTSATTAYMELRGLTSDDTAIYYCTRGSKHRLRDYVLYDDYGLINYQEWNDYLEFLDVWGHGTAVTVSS

## 4838_L06 (PGT-121) (antibody)
[1]
  IC50 (µg/mL), pseudovirus neutralization: 0.097 µg/mL
[2]
  IC50, pseudovirus neutralization: > 50 µg/mL
[3]
  EC50: 0.2 µg/mL

## 4993_K13 (PGT-141) (antibody)
[4]
  IC50 (µg/mL), single-round pseudovirus neutralization: 1.28 µg/mL
[5]
  IC50, pseudovirus neutralization: 0.586 µg/mL
[6]
  IC50 (µg/mL), single-round pseudovirus neutralization: > 50 µg/mL
[7]
  IC50, pseudovirus neutralization: > 10 µg/mL
[8]
  IC50 (µg/mL), single-round pseudovirus neutralization: > 50 µg/mL
[9]
  IC50, pseudovirus neutralization: > 50 µg/mL
[10]
  IC50 (µg/mL), single-round pseudovirus neutralization: 0.175 µg/mL
[11]
  IC50 (µg/mL), single-round pseudovirus neutralization: 0.019 µg/mL
[12]
  IC50 (µg/mL), single-round pseudovirus neutralization: 0.093 µg/mL
[13]
  IC50 (µg/mL), single-round pseudovirus neutralization: > 50 µg/mL
[14]
  IC50 (µg/mL), single-round pseudovirus neutralization: 0.029 µg/mL
[15]
  IC50 (µg/mL), single-round pseudovirus neutralization: > 50 µg/mL
[16]
  IC50 (µg/mL), single-round pseudovirus neutralization: > 50 µg/mL
[17]
  IC50 (µg/mL), single-round pseudovirus neutralization: > 50 µg/mL
[18]
  IC50 (µg/mL), single-round pseudovirus neutralization: > 50 µg/mL

## 4995_P16 (PGT-145) (antibody)
[4]
  IC50 (µg/mL), single-round pseudovirus neutralization: 3.15 µg/mL
[5]
  IC50, pseudovirus neutralization: 0.023 µg/mL
[6]
  IC50 (µg/mL), single-round pseudovirus neutralization: > 50 µg/mL
[8]
  IC50 (µg/mL), single-round pseudovirus neutralization: > 50 µg/mL
[9]
  IC50, pseudovirus neutralization: 0.337 µg/mL
[10]
  IC50 (µg/mL), single-round pseudovirus neutralization: 0.069 µg/mL
[11]
  IC50 (µg/mL), single-round pseudovirus neutralization: > 50 µg/mL
[12]
  IC50 (µg/mL), single-round pseudovirus neutralization: 3.22 µg/mL
[13]
  IC50 (µg/mL), single-round pseudovirus neutralization: 0.331 µg/mL
[14]
  IC50 (µg/mL), single-round pseudovirus neutralization: 0.235 µg/mL
[15]
  IC50 (µg/mL), single-round pseudovirus neutralization: 0.006 µg/mL
[16]
  IC50 (µg/mL), single-round pseudovirus neutralization: 0.967 µg/mL
[17]
  IC50 (µg/mL), single-round pseudovirus neutralization: 1.62 µg/mL
[18]
  IC50 (µg/mL), single-round pseudovirus neutralization: 0.997 µg/mL

## 1443_C16 (PG16) (TCN-116) (antibody)
[19]
  IC50 (µg/ml), pseudovirus neutralization: > 50 µg/mL
[20]
  IC50 (µg/ml), pseudovirus neutralization: > 50 µg/mL
[21]
  IC50: 0.003 µg/mL
[22]
  IC50, pseudovirus neutralization: 0.01 µg/mL

## 4E10 (antibody)
[19]
  IC50 (µg/ml), pseudovirus neutralization: 1.7 µg/mL
[20]
  IC50 (µg/ml), pseudovirus neutralization: 4.28 µg/mL
[21]
  IC50: 0.37 µg/mL
[22]
  IC50, pseudovirus neutralization: 0.04 µg/mL

## 2G12 (antibody)
[19]
  IC50 (µg/ml), pseudovirus neutralization: 31.9 µg/mL
[20]
  IC50 (µg/ml), pseudovirus neutralization: 1.67 µg/mL
[21]
  IC50: 1.81 µg/mL
[22]
  IC50, pseudovirus neutralization: > 50 µg/mL

## PGV04 (antibody)
[6]
  IC50 (µg/mL), pseudovirus neutralization: > 50 µg/mL
[23]
  IC50 (µg/mL), pseudovirus neutralization: 0.028 µg/mL
[24]
  IC50 (µg/mL), pseudovirus neutralization: 0.454 µg/mL
[25]
  IC50 (µg/mL), pseudovirus neutralization: 5.69 µg/mL
[26]
  IC50 (µg/mL), pseudovirus neutralization: 0.332 µg/mL
[27]
  IC50 (µg/mL), pseudovirus neutralization: 0.04 µg/mL
[28]
  IC50 (µg/mL), pseudovirus neutralization: 0.11 µg/mL
[29]
  IC50 (µg/mL), pseudovirus neutralization: 1.9 µg/mL
[30]
  IC50 (µg/mL), pseudovirus neutralization: 0.121 µg/mL
[31]
  IC50 (µg/mL), pseudovirus neutralization: 0.045 µg/mL
[32]
  IC50 (µg/mL), pseudovirus neutralization: > 50 µg/mL
[33]
  IC50 (µg/mL), pseudovirus neutralization: 2.52 µg/mL
[15]
  IC50 (µg/mL), pseudovirus neutralization: 0.183 µg/mL
[34]
  IC50 (µg/mL), pseudovirus neutralization: 0.041 µg/mL
[35]
  IC50 (µg/mL), pseudovirus neutralization: 0.028 µg/mL
[36]
  IC50 (µg/mL), pseudovirus neutralization: 0.027 µg/mL
[37]
  IC50 (µg/mL), pseudovirus neutralization: > 50 µg/mL
[16]
  IC50 (µg/mL), pseudovirus neutralization: 0.051 µg/mL

## b12 (antibody)
[19]
  IC50 (µg/ml), pseudovirus neutralization: > 50 µg/mL
[20]
  IC50 (µg/ml), pseudovirus neutralization: 0.02 µg/mL
[21]
  IC50: > 50 µg/mL
[22]
  IC50, pseudovirus neutralization: > 50 µg/mL

## 4995_E20 (PGT-142) (antibody)
[4]
  IC50 (µg/mL), single-round pseudovirus neutralization: 0.557 µg/mL
[5]
  IC50, pseudovirus neutralization: 0.172 µg/mL
[6]
  IC50 (µg/mL), single-round pseudovirus neutralization: > 50 µg/mL
[7]
  IC50, pseudovirus neutralization: > 10 µg/mL
[8]
  IC50 (µg/mL), single-round pseudovirus neutralization: > 50 µg/mL
[9]
  IC50, pseudovirus neutralization: > 50 µg/mL
[10]
  IC50 (µg/mL), single-round pseudovirus neutralization: 0.069 µg/mL
[11]
  IC50 (µg/mL), single-round pseudovirus neutralization: 0.014 µg/mL
[12]
  IC50 (µg/mL), single-round pseudovirus neutralization: 0.05 µg/mL
[13]
  IC50 (µg/mL), single-round pseudovirus neutralization: > 50 µg/mL
[14]
  IC50 (µg/mL), single-round pseudovirus neutralization: 0.058 µg/mL
[15]
  IC50 (µg/mL), single-round pseudovirus neutralization: 0.001 µg/mL
[16]
  IC50 (µg/mL), single-round pseudovirus neutralization: > 50 µg/mL
[17]
  IC50 (µg/mL), single-round pseudovirus neutralization: > 50 µg/mL
[18]
  IC50 (µg/mL), single-round pseudovirus neutralization: 31.5 µg/mL
